According to the RNAGym collection of RNA variant scans (doi:10.7554/elife.90254):

B1: LINE1-full (parent)
chain: UACGUAGGUGGUUUUCCCCUGAUAGUGCUAAGGGGGCCUGGAAGUUUGGACUGGGCAGAGCUCAACACAGCGUGGCAAAGUGGCUGUGGCUAGACUGCCUCUCUGGAUUCCUCGUCACUCAGCAGGGCAUCUCUGAGAGAAAUGCC

Variants of: B1
Experiment: self-cleavage, relative activity (ratio to wild type); higher = more cleavage; in vitro, sequencing; the parent is a self-cleaving ribozyme

First: UACGUAGGUGGUUUUCCCCUGAUAGUGCUAAGGGGGCCUGGAAGUUUGGACUGGGCAGAGCUCAACACAGCAUGGCAAAGUGGCUGUGGCUAGACAGCCUCUCUGGAUUCCUCGUCACUCAGCAGGGCAUCUCUGAGAGAAAUGCC
Second: UACGUAGGUGGUUUUCCCCUGAUAGUGCUAAGGGGGCCUGGAAGUUUGGACUGGGCAGAGCUCAACACAGCAUGGCAAAGUGGCUGUGGCUAGACUGCCUCCCUGGAUUCCUCGUCACUCAGCAGGGCAUCUCUGAGAGAAAUGCC
The self-cleavage of the first is lower: 0.04 for the first, 0.46 for the second.

First: UACGUAGGUGGUUUUCCCCUGAUAGUGCUAAGGGGGCCUGGAAGUUUGGACUGGGCAGAGCUCAACACAGCAUGGCAAAGUGGCUGUGGCUAGACUGCCUCUCAGGAUUCCUCGUCACUCAGCAGGGCAUCUCUGAGAGAAAUGCC
Second: UACGUAGGUGGUUUUCCCCUGAUAGUGCUAAGGGGGCCUGGAAGUUUGGACUGGGCAGAGCUCAACACAGCAUGGCAAAGUGGCUGUGGCUAGACUGCCUCUCUGGAUUCCUCGCCACUCAGCAGGGCAUCUCUGAGAGAAAUGCC
The self-cleavage of the first is higher: 0.93 for the first, 0.9 for the second.

First: UACGUAGGUGGUUUUCCCCUGAUAGUGCUAAGGGGGCCUGGAAGUUUGGACUGGGCAGAGCUCAACACAGCAUGGCAAAGUGGCUGUGGCUAGACUGCCUCUCUGGAUUCCUCGUCACUCAGCAGGGCACCUCUGAGAGAAAUGCC
Second: UACGUAGGUGGUUUUCCCCUGAUAGUGCUAAGGGGGCCUGGAAGUUUGGACUGGGCAGAGCUCAACACAGCAUGGCAAAGUGGCUGUGGCUAGACUGCCUCUCUGGAUUCCUCGUCACUCAGCAGGGCAUCUCAGAGAGAAAUGCC
The self-cleavage of the first is higher: 1.85 for the first, 1.15 for the second.

Going from UACGUAGGUGGUUUUCCCCUGAUAGUGCUAAGGGGGCCUGGAAGUUUGGACUGGGCAGAGCUCAACACAGCAUGGCAAAGUGGCUGUGGCUAGACUGCCUCUCUGGAUUCCUCGUCACUCAGCAGGGCAUCUCUGAGAGAAAAGCC to UACGUAGGUGGUUUUCCCCUGAUAGUGCUAAGGGGGCCUGGAAGUUUGGACUGGGCAGAGCUCAACACAGCCUGGCAAAGUGGCUGUGGCUAGACUGCCUCUCUGGAUUCCUCGUCACUCAGCAGGGCAUCUCUGAGAGAAAUGCC, the self-cleavage falls from 1.85 to 1.18.

Going from UACGUAGGUGGUUUUCCCCUGAUAGUGCUAAGGGGGCCUGGAAGUUUGGACUGGGCAGAGCUCAACACAGCCUGGCAAAGUGGCUGUGGCUAGACUGCCUCUCUGGAUUCCUCGUCACUCAGCAGGGCAUCUCUGGGAGAAAUGCC to UACGUAGGUGGUUUUCCCCUGAUAGUGCUAAGGGGGCCUGGAAGUUUGGACUGGGCAGAGCUCAACACAGCCUGGCAAAGUGGCUGUGGUUAGACUGCCUCUCUGGAUUCCUCGUCACUCAGCAGGGCAUCUCUGAGAGAAAUGCC, the self-cleavage falls from 1.41 to 0.03.

Going from UACGUAGGUGGUUUUCCCCUGAUAGUGCUAAGGGGGCCUGGAAGUUUGGACUGGGCAGAGCUCAACACAGCCUGGCAAAGUGGCUGUGGCUAGACUGCCUCUCUGGAGUCCUCGUCACUCAGCAGGGCAUCUCUGAGAGAAAUGCC to UACGUAGGUGGUUUUCCCCUGAUAGUGCUAAGGGGGCCUGGAAGUUUGGACUGGGCAGAGCUCAACACAGCUUGGCAAAGUGGCUGUGGCUAGACUGCCUCUCUGGAUUCCUCGUCACUCAGCAGGGCAUCUCUGAGAGAAAUGCC, the self-cleavage falls from 0.96 to 0.9.

Going from UACGUAGGUGGUUUUCCCCUGAUAGUGCUAAGGGGGCCUGGAAGUUUGGACUGGGCAGAGCUCAACACAGCUUGGCAAAGUGGCUGUGGCUAGACUGCCUCUCUGGAUUCCUCGUCACUCGGCAGGGCAUCUCUGAGAGAAAUGCC to UACGUAGGUGGUUUUCCCCUGAUAGUGCUAAGGGGGCCUGGAAGUUUGGACUGGGCAGAGCUCAACACAGCUUGGCAAAGUGGCUGUGGCUAGACUGCCUCUCUGGAUUCCUCGUCACUCUGCAGGGCAUCUCUGAGAGAAAUGCC, the self-cleavage falls from 1.32 to 1.08.

Going from UACGUAGGUGGUUUUCCCCUGAUAGUGCUAAGGGGGCCUGGAAGUUUGGACUGGGCAGAGCUCAACACAGCUUGGCAAAGUGGCUGUGGCUAGACUGCCUCUCUGGAUUCCUCGUCACUCAGCAGGGCGUCUCUGAGAGAAAUGCC to UACGUAGGUGGUUUUCCCCUGAUAGUGCUAAGGGGGCCUGGAAGUUUGGACUGGGCAGAGCUCAACACAGCUUGGCAAAGUGGCUGUGGCUAGACUGCCUCUCUGGAUUCCUCGUCACUCAGCAGGGCAUCUCUGAGAGAAGUGCC, the self-cleavage falls from 1.08 to 0.

Going from UACGUAGGUGGUUUUCCCCUGAUAGUGCUAAGGGGGCCUGGAAGUUUGGACUGGGCAGAGCUCAACACAGCUCGGCAAAGUGGCUGUGGCUAGACUGCCUCUCUGGAUUCCUCGUCACUCAGCAGGGCAUCUCUGAGAGAAAUGCC to UACGUAGGUGGUUUUCCCCUGAUAGUGCUAAGGGGGCCUGGAAGUUUGGACUGGGCAGAGCUCAACACAGCUUGGCAAAGCGGCUGUGGCUAGACUGCCUCUCUGGAUUCCUCGUCACUCAGCAGGGCAUCUCUGAGAGAAAUGCC, the self-cleavage rises from 0.9 to 1.28.

First: UACGUAGGUGGUUUUCCCCUGAUAGUGCUAAGGGGGCCUGGAAGUUUGGACUGGGCAGAGCUCAACACAGCUUGGCAAAGUGGCGGUGGCUAGACUGCCUCUCUGGAUUCCUCGUCACUCAGCAGGGCAUCUCUGAGAGAAAUGCC
Second: UACGUAGGUGGUUUUCCCCUGAUAGUGCUAAGGGGGCCUGGAAGUUUGGACUGGGCAGAGCUCAACACAGCUUGGCAAAGUGGCUGAGGCUAGACUGCCUCUCUGGAUUCCUCGUCACUCAGCAGGGCAUCUCUGAGAGAAAUGCC
The self-cleavage of the first is higher: 0.1 for the first, 0.03 for the second.

UACGUAGGUGGUUUUCCCCUGAUAGUGCUAAGGGGGCCUGGAAGUUUGGACUGGGCAGAGCUCAACACAGCUUGGCAAAGUGGCUGUGGCAAGACUGCCUCUCUGGAUUCCUCGUCACUCAGCAGGGCAUCUCUGAGAGAAAUGCC and UACGUAGGUGGUUUUCCCCUGAUAGUGCUAAGGGGGCCUGGAAGUUUGGACUGGGCAGAGCUCAACACAGCUUGGCAAAGUGGCUGUGGCCAGACUGCCUCUCUGGAUUCCUCGUCACUCAGCAGGGCAUCUCUGAGAGAAAUGCC are the same in self-cleavage: 0.49 for the first, 0.49 for the second.

Going from UACGUAGGUGGUUUUCCCCUGAUAGUGCUAAGGGGGCCUGGAAGUUUGGACUGGGCAGAGCUCAACACAGCUUGGCAAAGUGGCUGUGGCUAGACUGCCUCUCUGGAUUCCUCGCCACUCAGCAGGGCAUCUCUGAGAGAAAUGCC to UACGUAGGUGGUUUUCCCCUGAUAGUGCUAAGGGGGCCUGGAAGUUUGGACUGGGCAGAGCUCAACACAGCUUGGCAAAGUGGCUGUGGCUAGACUGCCUCUCUGGAUUCCUCGUCACUCAGCAGGGCAUCUCCGAGAGAAAUGCC, the self-cleavage falls from 1.31 to 1.24.

First: UACGUAGGUGGUUUUCCCCUGAUAGUGCUAAGGGGGCCUGGAAGUUUGGACUGGGCAGAGCUCAACACAGCUUGGCAAAGUGGCUGUGGCUAGACUGCCUCUCUGGAUUCCUCGUCACUCAGCAGGGCAUCUCUGAGAGAAACGCC
Second: UACGUAGGUGGUUUUCCCCUGAUAGUGCUAAGGGGGCCUGGAAGUUUGGACUGGGCAGAGCUCAACACAGCGAGGCGAAGUGGCUGUGGCUAGACUGCCUCUCUGGAUUCCUCGUCACUCAGCAGGGCAUCUCUGAGAGAAAUGCC
The self-cleavage of the first is lower: 1.02 for the first, 2.29 for the second.

First: UACGUAGGUGGUUUUCCCCUGAUAGUGCUAAGGGGGCCUGGAAGUUUGGACUGGGCAGAGCUCAACACAGCGAGGCACAGUGGCUGUGGCUAGACUGCCUCUCUGGAUUCCUCGUCACUCAGCAGGGCAUCUCUGAGAGAAAUGCC
Second: UACGUAGGUGGUUUUCCCCUGAUAGUGCUAAGGGGGCCUGGAAGUUUGGACUGGGCAGAGCUCAACACAGCGAGGCAGAGUGGCUGUGGCUAGACUGCCUCUCUGGAUUCCUCGUCACUCAGCAGGGCAUCUCUGAGAGAAAUGCC
The self-cleavage of the first is higher: 2.67 for the first, 0.34 for the second.

Going from UACGUAGGUGGUUUUCCCCUGAUAGUGCUAAGGGGGCCUGGAAGUUUGGACUGGGCAGAGCUCAACACAGCGAGGCAUAGUGGCUGUGGCUAGACUGCCUCUCUGGAUUCCUCGUCACUCAGCAGGGCAUCUCUGAGAGAAAUGCC to UACGUAGGUGGUUUUCCCCUGAUAGUGCUAAGGGGGCCUGGAAGUUUGGACUGGGCAGAGCUCAACACAGCGAGGCAAUGUGGCUGUGGCUAGACUGCCUCUCUGGAUUCCUCGUCACUCAGCAGGGCAUCUCUGAGAGAAAUGCC, the self-cleavage rises from 1.94 to 2.48.

Going from UACGUAGGUGGUUUUCCCCUGAUAGUGCUAAGGGGGCCUGGAAGUUUGGACUGGGCAGAGCUCAACACAGCGAGGCAAAGUGGCUGUGGCUGGACUGCCUCUCUGGAUUCCUCGUCACUCAGCAGGGCAUCUCUGAGAGAAAUGCC to UACGUAGGUGGUUUUCCCCUGAUAGUGCUAAGGGGGCCUGGAAGUUUGGACUGGGCAGAGCUCAACACAGCGAGGCAAAGUGGCUGUGGCUUGACUGCCUCUCUGGAUUCCUCGUCACUCAGCAGGGCAUCUCUGAGAGAAAUGCC, the self-cleavage rises from 0.13 to 0.8.

First: UACGUAGGUGGUUUUCCCCUGAUAGUGCUAAGGGGGCCUGGAAGUUUGGACUGGGCAGAGCUCAACACAGCGAGGCAAAGUGGCUGUGGCUAGCCUGCCUCUCUGGAUUCCUCGUCACUCAGCAGGGCAUCUCUGAGAGAAAUGCC
Second: UACGUAGGUGGUUUUCCCCUGAUAGUGCUAAGGGGGCCUGGAAGUUUGGACUGGGCAGAGCUCAACACAGCGAGGCAAAGUGGCUGUGGCUAGGCUGCCUCUCUGGAUUCCUCGUCACUCAGCAGGGCAUCUCUGAGAGAAAUGCC
The self-cleavage of the first is lower: 0.05 for the first, 0.35 for the second.

Going from UACGUAGGUGGUUUUCCCCUGAUAGUGCUAAGGGGGCCUGGAAGUUUGGACUGGGCAGAGCUCAACACAGCGAGGCAAAGUGGCUGUGGCUAGACUGCCUCUCUGGGUUCCUCGUCACUCAGCAGGGCAUCUCUGAGAGAAAUGCC to UACGUAGGUGGUUUUCCCCUGAUAGUGCUAAGGGGGCCUGGAAGUUUGGACUGGGCAGAGCUCAACACAGCGAGGCAAAGUGGCUGUGGCUAGACUGCCUCUCUGGAUUCCUCGUCUCUCAGCAGGGCAUCUCUGAGAGAAAUGCC, the self-cleavage falls from 2.03 to 1.81.

First: UACGUAGGUGGUUUUCCCCUGAUAGUGCUAAGGGGGCCUGGAAGUUUGGACUGGGCAGAGCUCAACACAGCGAGGCAAAGUGGCUGUGGCUAGACUGCCUCUCUGGAUUCCUCGUCACUCAGCUGGGCAUCUCUGAGAGAAAUGCC
Second: UACGUAGGUGGUUUUCCCCUGAUAGUGCUAAGGGGGCCUGGAAGUUUGGACUGGGCAGAGCUCAACACAGCGAGGCAAAGUGGCUGUGGCUAGACUGCCUCUCUGGAUUCCUCGUCACUCAGCAGGGCAUCUCUGGGAGAAAUGCC
The self-cleavage of the first is lower: 1.4 for the first, 1.61 for the second.

For UACGUAGGUGGUUUUCCCCUGAUAGUGCUAAGGGGGCCUGGAAGUUUGGACUGGGCAGAGCUCAACACAGCGAGGCAAAGUGGCUGUGGCUAGACUGCCUCUCUGGAUUCCUCGUCACUCAGCAGGGCAUCUCUGAGAGUAAUGCC, the self-cleavage was 1.88.
